Key:
[1] = biological target: T1, frizzled-2 (rFzd-2) (Rattus norvegicus, UniProt Q08464); experiment: Activity assay: luciferase reporter in HEK superTOPflash cells transfected with frizzled-2; assay type: cell-based; settings: FIG. 3
T1 construct: expressed in transfected cells; host or cells: HEK293 superTOPflash (transient, Fugene6, pcDNA3.1/hygro)
Procedure: Human embryonic kidney (HEK) cells were used for screening. These cells have a luciferase construct stably transfected into the genome (see FIG. 2A), such that when the frizzled receptor is activated and β-catenin is increased, the luciferase is activated by transcription and light can be measured.
The peptides were tested by transfecting the frizzled-1 or the frizzled-2 receptor and addition of UM206(S-S) to the cell culture. For testing antagonistic activity, UM206 was added and the natural ligand Wnt3a was added, which is a natural stimulus for the canonical pathway.
Day 2: Transfection 12-Well Plates • heat Fugene6 and DNA 15 minutes at RT • 2 ml serum-free medium in tube • add 3 μl fugene • add 2 μg DNA • incubate 30 minutes at RT • wash with PBS • add 50 μl transfectiemix • add 1 ml antibiotica-free medium
Day 3: Add Conditioned Medium or UM206
Day 4: Luciferase Activity Measurements • remove medium • wash with PBS • add 500 μl ⅕ lysisbuffer • shake for 60 minutes • centrifuge in tube • 20 μl lysaat and 50 μl luciferase in new tube for measurement • vortex • measure
Three areas of high homology that contained two cysteines are underlined (UM207), (UM208) and (UM206). In FIGS. 9B through 9D, the inhibitory effect of these three peptides on Wnt3a-induced luciferase activity in HEK293-superTOPflash is shown. […]

[2] = system: canonical Wnt signaling; experiment: Activity assay (Example 1): TOPflash luciferase reporter in HEK (HEK293-superTOPflash) cells, receptor not specified; assay type: cell-based, human; settings: no Fzd transfection
[3] = system: Fzd-1 and -2; experiment: Binding of rhodamine-labeled UM206 to frozen sections of mouse kidney and small intestine and its blocking; settings: UM206-rhodamine 1.10^−8 M; UM207 1.10^−7 M, Wnt3a 1.10^−8 M
Procedure: Specificity of the binding site was confirmed by prior incubation of the tissue sections with UM207 (1.10^−7 M) or recombinant Wnt3a (1.10^−8 M).
One-half of the hearts of the mice was embedded in paraffin and cut in 4 μm sections. The paraffin sections were rehydrated and washed in PBS. One section was stained with AZAN, allowing an accurate determination of the infarct size. To visualize the myofibroblasts in the infarct area, the sections were incubated with an antibody directed against α-smooth muscle actin (Sigma-Aldrich), followed by incubation with the peroxidase-conjugated secondary antibody (Vector laboratories). Nuclei were visualized by hematoxylin. Photos were taken with a Leica (CTR500, 63×/0.85) camera and analyzed with the Quantimet program (QWin/QGo). An examiner blinded to the groups of the animals obtained all measurements. For the experiments with Rhodamine-labeled UM206, frozen sections (4 μm) of mouse kidney and small intestine were used.

T1 sequence (Q08464 29-570): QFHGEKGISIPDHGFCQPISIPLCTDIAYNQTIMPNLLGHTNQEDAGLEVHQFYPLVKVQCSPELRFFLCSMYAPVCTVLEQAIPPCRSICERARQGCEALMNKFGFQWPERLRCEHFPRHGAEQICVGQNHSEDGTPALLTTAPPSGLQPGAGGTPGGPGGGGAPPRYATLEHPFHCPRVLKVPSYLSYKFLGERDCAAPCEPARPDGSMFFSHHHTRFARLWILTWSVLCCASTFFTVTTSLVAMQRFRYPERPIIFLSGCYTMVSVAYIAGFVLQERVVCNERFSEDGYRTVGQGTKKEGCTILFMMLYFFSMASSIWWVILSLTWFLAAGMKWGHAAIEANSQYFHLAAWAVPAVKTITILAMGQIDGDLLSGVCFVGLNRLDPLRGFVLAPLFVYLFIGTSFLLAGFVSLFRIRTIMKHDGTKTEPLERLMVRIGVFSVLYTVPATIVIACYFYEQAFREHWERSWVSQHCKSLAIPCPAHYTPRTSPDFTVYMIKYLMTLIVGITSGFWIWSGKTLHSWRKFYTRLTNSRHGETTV

concentration-dependent increase of the luciferase activity, in combination with frizzled-2 [1]: twelve-fold
B1: Wnt3a: natural ligand of frizzled, natural stimulus for the canonical pathway; recombinant or conditioned medium (protein)
chain: SYPIWWSLAVGPQYSSLGSQPILCASIPGLVPKQLRFCRNYVEIMPSVAEGIKIGIQECQHQFRGRRWNCTTVHDSLAIFGPVLDKATRESAFVHAIASAGVAFAVTRSCAEGTAAICGCSSRHQGSPGKGWKWGGCSEDIEFGGMVSREFADARENRPDARSAMNRHNNEAGRQAIASHMHLKCKCHGLSGSCEVKTCWWSQPDFRAIGDFLKDKYDSASEMVVEKHRESRGWVETLRPRYTYFKVPTERDLVYYEASPNFCEPNPETGSFGTRDRTCNVSSHGIDGCDLLCCGRGHNARAERRREKCRCVFHWCCYVSCQECTRVYDVHTCK
increase of luciferase activity [2]: ~450 fold
blocking of UM206-rhodamine binding by prior incubation [3]: completely abolished the binding of UM206-rhodamine
